Our source for the stoichiometry N values is article PMC3109874.

For the experiment, the target named is dicamba monooxygenase (DMO) (Stenotrophomonas (formerly Pseudomonas) maltophilia, strain DI-6) (UniProt Q5S3I3). Kind of experiment: crystal structure.

As for “dicamba monooxygenase (DMO) (from UniProt Q5S3I3 2-339) (enzyme)”, the stoichiometry N – broadly, the number of molecules, sites or subunits per partner or assembly – worked out at 3.
